In this assay the target is FLAG-Sec23A (human, UniProt Q15436 1-765). Briefly: pull-down.
FLAG-Sec23A, sequence (Q15436 whole entry): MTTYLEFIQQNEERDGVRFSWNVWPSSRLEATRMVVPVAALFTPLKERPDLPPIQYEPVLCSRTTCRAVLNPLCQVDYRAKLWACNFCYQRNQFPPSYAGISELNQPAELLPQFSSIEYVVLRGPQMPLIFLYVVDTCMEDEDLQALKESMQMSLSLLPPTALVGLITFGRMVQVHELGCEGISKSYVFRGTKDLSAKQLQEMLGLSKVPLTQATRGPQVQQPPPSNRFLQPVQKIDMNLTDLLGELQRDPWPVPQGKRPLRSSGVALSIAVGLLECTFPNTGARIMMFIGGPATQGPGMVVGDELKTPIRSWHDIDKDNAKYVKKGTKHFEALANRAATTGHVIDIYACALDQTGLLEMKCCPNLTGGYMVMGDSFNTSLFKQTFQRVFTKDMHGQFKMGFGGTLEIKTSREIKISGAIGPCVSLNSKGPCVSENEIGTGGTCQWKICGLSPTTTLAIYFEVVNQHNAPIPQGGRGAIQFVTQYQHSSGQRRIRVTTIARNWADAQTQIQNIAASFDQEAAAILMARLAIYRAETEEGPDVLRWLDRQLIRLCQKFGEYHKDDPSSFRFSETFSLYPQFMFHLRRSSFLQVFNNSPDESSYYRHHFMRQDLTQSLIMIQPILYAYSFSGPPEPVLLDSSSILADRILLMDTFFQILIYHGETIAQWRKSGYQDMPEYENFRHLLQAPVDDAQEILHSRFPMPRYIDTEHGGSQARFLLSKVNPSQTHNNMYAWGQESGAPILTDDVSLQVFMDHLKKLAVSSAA

B1: GST-tagged TANGO1-PRD (1651–1907 aa)-His6 (domain or fragment)
chain: NTQNPPRRGPLSQNGSFGPSPVSGGECSPPLTVEPPVRPLSATLNRRDMPRSEFGSVDGPLPHPRWSAEASGKPSPSDPGSGTATMMNSSSRGSSPTRVLDEGKVNMAPKGPPPFPGVPLMSTPMGGPVPPPIRYGPPPQLCGPFGPRPLPPPFGPGMRPPLGLREFAPGVPPGRRDLPLHPRGFLPGHAPFRPLGSLGPREYFIPGTRLPPPTHGPQEYPPPPAVRDLLPSGSRDEPPPASQSTSQDCSQALKQSP
Take B1: the binding result is listed as “binds”.
